Source: the supplement of paper PMC10065799, “High-throughput profiling of sequence recognition by tyrosine kinases and SH2 domains using bacterial peptide display” (eLife, 2023)

Legend:
Jak2 = Jak2 (UniProt O60674); test: phosphorylation enrichment, bacterial display (enrichment ratio); higher = better substrate or ligand; peptides without Tyr show the background
c-Src = test: as above
AncSZ = test: as above
Fyn = Fyn (UniProt P06241); test: as above
Fer (mouse) = test: as above
FGFR1 = FGFR1 (UniProt P11362); test: as above
EPHB2 = EPHB2 (UniProt P29323); test: as above
MERTK = MERTK (UniProt Q12866); test: as above
c-Abl (mouse) = test: as above
EPHB1 = EPHB1 (UniProt P54762); test: as above
Hck = Hck (UniProt P08631); test: as above
FGFR3 = FGFR3 (UniProt P22607); test: as above
Fes = Fes (UniProt P07332); test: as above
SHP2-C SH2 = test: SH2 binding enrichment of the phosphorylated peptide, bacterial display (enrichment ratio); higher = better substrate or ligand; peptides without Tyr show the background
Grb2 SH2 = Grb2 SH2 (UniProt P62993); test: as above
c-Src SH2 = test: as above
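Throughout, for SH2 binding enrichment of the phosphorylated peptide, bacterial display: peptide library displayed on the E. coli surface as eCPX fusions, selected cells deep-sequenced, score is each peptide's frequency after selection divided by its frequency in the input.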
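Throughout, for phosphorylation enrichment, bacterial display: 11-residue human phosphosite peptides and single-mutation variants displayed on the E. coli surface, counted by deep sequencing, each peptide's frequency after selection divided by its frequency in the unselected input library; frequency after pTyr selection over input frequency; kinase dosed for 20-30% of maximal phosphorylation in three min.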

EPHB2, sequence (P29323 whole entry, looked up): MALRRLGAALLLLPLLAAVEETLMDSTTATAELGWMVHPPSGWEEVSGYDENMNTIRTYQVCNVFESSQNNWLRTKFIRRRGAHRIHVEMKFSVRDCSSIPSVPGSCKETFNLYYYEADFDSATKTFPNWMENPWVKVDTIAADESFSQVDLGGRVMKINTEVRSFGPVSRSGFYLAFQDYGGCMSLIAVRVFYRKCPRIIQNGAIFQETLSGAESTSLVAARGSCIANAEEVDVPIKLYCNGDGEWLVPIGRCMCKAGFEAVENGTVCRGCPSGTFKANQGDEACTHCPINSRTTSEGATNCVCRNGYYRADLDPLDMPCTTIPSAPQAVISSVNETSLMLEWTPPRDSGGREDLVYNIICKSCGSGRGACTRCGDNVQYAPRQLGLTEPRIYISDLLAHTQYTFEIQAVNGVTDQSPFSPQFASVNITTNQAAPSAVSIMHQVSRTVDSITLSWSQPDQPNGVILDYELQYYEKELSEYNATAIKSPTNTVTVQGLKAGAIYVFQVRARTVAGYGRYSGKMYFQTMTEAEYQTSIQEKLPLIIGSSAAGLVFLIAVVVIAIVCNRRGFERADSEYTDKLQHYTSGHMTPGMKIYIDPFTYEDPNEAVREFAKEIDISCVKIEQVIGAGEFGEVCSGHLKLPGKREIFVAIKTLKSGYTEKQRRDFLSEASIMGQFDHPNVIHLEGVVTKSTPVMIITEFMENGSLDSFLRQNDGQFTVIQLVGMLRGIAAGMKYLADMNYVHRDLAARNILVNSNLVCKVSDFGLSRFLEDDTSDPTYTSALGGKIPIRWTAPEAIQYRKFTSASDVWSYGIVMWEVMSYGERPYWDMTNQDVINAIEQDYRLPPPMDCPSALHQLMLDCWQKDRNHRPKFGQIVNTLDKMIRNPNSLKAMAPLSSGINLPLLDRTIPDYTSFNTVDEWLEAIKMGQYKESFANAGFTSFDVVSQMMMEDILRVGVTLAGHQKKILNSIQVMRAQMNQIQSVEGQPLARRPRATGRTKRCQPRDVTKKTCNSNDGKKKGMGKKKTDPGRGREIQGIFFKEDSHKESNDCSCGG
FGFR1, sequence (P11362 whole entry, looked up): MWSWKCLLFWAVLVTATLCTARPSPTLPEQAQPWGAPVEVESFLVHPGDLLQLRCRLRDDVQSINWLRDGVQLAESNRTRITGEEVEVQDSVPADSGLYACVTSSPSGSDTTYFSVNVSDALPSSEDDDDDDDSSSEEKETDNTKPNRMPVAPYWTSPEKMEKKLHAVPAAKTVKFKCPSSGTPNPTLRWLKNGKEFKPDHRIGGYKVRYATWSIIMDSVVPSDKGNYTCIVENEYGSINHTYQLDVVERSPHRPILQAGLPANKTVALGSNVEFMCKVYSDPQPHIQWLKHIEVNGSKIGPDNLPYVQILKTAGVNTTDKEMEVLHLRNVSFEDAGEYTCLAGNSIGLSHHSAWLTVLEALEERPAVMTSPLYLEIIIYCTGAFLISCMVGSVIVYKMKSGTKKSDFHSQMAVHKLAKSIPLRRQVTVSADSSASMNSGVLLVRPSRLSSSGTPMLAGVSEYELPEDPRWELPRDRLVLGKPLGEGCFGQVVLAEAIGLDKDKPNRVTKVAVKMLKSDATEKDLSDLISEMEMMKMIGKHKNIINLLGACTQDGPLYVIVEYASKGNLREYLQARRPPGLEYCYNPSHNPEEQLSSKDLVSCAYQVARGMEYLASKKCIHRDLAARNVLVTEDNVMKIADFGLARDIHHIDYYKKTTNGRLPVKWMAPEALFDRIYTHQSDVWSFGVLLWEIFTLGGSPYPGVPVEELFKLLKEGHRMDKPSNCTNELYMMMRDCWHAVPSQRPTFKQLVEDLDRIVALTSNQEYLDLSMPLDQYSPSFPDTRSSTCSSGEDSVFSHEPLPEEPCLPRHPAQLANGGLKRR
EPHB1, sequence (P54762 whole entry, looked up): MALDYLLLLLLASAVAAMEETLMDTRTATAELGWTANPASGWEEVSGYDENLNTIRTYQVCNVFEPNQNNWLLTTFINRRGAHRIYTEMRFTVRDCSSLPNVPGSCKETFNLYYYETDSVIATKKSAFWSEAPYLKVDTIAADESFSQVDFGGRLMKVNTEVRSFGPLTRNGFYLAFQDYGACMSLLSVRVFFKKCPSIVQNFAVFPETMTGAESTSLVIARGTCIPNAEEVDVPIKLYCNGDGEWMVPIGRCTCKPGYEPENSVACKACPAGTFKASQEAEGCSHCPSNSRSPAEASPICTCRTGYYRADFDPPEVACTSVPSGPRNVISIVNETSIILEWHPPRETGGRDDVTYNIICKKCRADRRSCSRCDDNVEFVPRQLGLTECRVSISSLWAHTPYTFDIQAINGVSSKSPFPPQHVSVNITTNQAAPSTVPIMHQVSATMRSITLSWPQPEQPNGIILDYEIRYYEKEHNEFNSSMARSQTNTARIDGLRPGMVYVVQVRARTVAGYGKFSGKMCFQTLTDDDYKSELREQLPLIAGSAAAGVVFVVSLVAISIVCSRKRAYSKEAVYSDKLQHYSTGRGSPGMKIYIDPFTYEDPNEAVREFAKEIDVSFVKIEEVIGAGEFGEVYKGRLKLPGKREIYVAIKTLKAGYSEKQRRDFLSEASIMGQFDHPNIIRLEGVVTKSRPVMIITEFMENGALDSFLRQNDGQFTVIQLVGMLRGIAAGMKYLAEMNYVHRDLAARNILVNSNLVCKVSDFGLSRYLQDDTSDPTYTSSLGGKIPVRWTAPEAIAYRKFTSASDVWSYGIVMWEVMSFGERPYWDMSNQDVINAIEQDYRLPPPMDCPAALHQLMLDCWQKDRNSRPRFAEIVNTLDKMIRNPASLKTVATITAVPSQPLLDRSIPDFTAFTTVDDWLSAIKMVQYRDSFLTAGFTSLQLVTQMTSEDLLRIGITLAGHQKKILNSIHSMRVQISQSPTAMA
Jak2, sequence (O60674 whole entry, looked up): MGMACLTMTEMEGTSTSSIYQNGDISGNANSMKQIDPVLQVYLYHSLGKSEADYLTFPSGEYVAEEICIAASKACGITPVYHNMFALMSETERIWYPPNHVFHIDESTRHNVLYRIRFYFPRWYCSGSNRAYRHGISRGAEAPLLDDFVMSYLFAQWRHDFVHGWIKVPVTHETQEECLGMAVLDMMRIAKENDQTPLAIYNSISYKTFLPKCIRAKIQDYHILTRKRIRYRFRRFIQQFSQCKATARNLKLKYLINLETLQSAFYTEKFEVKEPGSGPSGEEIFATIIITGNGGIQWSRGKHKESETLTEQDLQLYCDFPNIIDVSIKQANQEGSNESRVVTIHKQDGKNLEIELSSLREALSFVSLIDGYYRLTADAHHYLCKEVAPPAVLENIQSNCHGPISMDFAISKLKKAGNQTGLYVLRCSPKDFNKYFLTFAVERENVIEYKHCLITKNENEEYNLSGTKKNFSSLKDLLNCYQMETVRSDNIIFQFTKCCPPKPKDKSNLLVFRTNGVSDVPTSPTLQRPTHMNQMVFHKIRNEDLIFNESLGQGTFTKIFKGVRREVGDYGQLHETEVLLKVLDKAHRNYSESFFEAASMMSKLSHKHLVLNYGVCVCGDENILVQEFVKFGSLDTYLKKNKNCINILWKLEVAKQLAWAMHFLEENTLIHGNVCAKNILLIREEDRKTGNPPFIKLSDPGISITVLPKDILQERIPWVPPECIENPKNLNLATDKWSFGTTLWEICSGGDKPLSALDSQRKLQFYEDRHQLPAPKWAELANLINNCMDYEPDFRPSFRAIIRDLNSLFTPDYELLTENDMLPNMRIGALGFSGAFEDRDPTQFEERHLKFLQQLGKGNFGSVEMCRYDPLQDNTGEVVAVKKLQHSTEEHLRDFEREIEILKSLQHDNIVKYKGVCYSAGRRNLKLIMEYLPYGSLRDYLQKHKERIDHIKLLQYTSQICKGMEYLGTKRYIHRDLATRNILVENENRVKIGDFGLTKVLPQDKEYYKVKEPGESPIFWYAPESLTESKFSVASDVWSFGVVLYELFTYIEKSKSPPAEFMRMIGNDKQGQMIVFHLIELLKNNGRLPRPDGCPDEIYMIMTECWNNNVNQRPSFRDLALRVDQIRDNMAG
Hck, sequence (P08631 whole entry, looked up): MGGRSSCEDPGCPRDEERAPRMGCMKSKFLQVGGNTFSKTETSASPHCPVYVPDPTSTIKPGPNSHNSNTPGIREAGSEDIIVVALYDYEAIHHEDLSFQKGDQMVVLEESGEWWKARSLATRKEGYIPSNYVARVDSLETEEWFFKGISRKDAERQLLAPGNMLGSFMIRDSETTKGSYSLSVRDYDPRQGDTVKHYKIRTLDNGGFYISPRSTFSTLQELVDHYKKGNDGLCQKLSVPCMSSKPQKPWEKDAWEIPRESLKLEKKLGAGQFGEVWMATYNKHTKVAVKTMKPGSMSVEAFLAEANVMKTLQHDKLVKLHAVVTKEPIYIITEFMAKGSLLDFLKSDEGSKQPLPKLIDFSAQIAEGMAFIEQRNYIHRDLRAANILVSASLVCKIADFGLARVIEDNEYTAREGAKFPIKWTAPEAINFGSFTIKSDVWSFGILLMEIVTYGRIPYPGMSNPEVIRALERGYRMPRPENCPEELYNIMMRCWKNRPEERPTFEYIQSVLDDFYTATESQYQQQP
Fyn, sequence (P06241 whole entry, looked up): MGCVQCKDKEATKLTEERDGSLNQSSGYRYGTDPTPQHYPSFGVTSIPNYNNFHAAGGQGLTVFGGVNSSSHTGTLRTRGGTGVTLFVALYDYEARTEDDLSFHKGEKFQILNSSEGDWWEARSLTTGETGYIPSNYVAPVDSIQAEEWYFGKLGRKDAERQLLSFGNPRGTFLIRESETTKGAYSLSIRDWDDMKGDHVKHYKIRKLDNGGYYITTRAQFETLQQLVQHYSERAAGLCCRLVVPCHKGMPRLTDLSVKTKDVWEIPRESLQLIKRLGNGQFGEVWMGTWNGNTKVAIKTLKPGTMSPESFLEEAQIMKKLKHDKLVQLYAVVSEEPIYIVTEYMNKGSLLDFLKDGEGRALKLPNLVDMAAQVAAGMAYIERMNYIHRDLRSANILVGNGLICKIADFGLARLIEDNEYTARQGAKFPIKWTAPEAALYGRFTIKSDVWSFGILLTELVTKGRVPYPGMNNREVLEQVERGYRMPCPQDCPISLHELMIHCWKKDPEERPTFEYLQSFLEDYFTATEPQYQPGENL

SH2 binding enrichment (SHP2-C SH2) | SH2 binding enrichment (Grb2 SH2) | SH2 binding enrichment (c-Src SH2) | Sequence | phosphorylation enrichment (Jak2) | phosphorylation enrichment (c-Src) | phosphorylation enrichment (AncSZ) | phosphorylation enrichment (Fyn) | phosphorylation enrichment (Fer (mouse)) | phosphorylation enrichment (FGFR1) | phosphorylation enrichment (EPHB2) | phosphorylation enrichment (MERTK) | phosphorylation enrichment (c-Abl (mouse)) | phosphorylation enrichment (EPHB1) | phosphorylation enrichment (Hck) | phosphorylation enrichment (FGFR3) | phosphorylation enrichment (Fes)
0.981 | 0.62 | 0.474 | HNLDFYKMTTN [FGFR3_Y648_K650M_YF] | 1.25 | 0.364 | 2.03 | 1.66 | 0.728 | 1.45 | 1.1 | 0.783 | 0.954 | 0.954 | 1.67 | 1.88 | 1.74
0.8 | 0.723 | 0.678 | HNQDDYSFPSR [LDLR_Y845_G844D_YF] | 0.536 | 0.633 | 5.49 | 0.737 | 0.573 | 0.539 | 2.14 | 0.553 | 0.545 | 1.3 | 0.586 | 0.75 | 0.77
0.564 | 1.04 | 0.423 | HRGCLYLAIEY [TEK_Y899_Y897C] | 1.88 | 0.936 | 1.86 | 0.695 | 0.868 | 0.827 | 1.17 | 0.691 | 1.49 | 1.01 | 1.05 | 1.31 | 2.3
0.722 | 0.645 | 0.571 | HRGHLYLAIEF [TEK_Y899_Y897H_YF] | 6.33 | 2.63 | 3.67 | 1.49 | 1.38 | 1.41 | 1.67 | 1.64 | 9.68 | 1.78 | 1.5 | 1.79 | 8.12
0.6 | 0.639 | 0.531 | HSQEDYFECFQ [ZIM2_Y411] | 1.25 | 0.79 | 3.08 | 0.669 | 0.614 | 10.2 | 1.2 | 0.624 | 0.902 | 2.03 | 0.623 | 8.51 | 1.82
0.606 | 0.914 | 0.464 | HTLIKYTDGDQ [PUS7L_Y94] | 1.75 | 1.09 | 1.41 | 1.89 | 0.64 | 1.33 | 0.982 | 1.16 | 1.35 | 0.819 | 1.01 | 1.14 | 1.76
0.674 | 0.796 | 0.393 | IATAIYSGDKI [UGGT2_Y823] | 0.6 | 2.69 | 0.543 | 2.11 | 0.396 | 0.421 | 0.432 | 0.455 | 0.422 | 0.434 | 2.38 | 0.482 | 0.671

The next lines start with the sequence.

Sequence | SH2 binding enrichment (SHP2-C SH2) | SH2 binding enrichment (Grb2 SH2) | SH2 binding enrichment (c-Src SH2) | phosphorylation enrichment (Jak2) | phosphorylation enrichment (c-Src) | phosphorylation enrichment (AncSZ) | phosphorylation enrichment (Fyn) | phosphorylation enrichment (Fer (mouse)) | phosphorylation enrichment (FGFR1) | phosphorylation enrichment (EPHB2) | phosphorylation enrichment (MERTK) | phosphorylation enrichment (c-Abl (mouse)) | phosphorylation enrichment (EPHB1) | phosphorylation enrichment (Hck) | phosphorylation enrichment (FGFR3) | phosphorylation enrichment (Fes)
HNLFSYPTKHE [MYO3A_Y1396_YF] | 0.523 | 0.576 | 0.597 | 1.01 | 0.531 | 0.773 | 0.631 | 0.624 | 0.74 | 0.624 | 0.868 | 0.65 | 0.65 | 0.874 | 0.738 | 0.989
HNVAIYEGYAL [ACTC1_Y168_P166A] | 0.838 | 0.716 | 2.31 | 2.17 | 17.1 | 2.26 | 15.4 | 19.7 | 0.878 | 22.6 | 6.65 | 3.44 | 15.8 | 12.8 | 0.969 | 2.5
HNVPICEGFAL [ACTC1_Y168_Y168C_YF] | 1.16 | 0.871 | 0.555 | 1.15 | 0.621 | 1.1 | 0.75 | 0.59 | 0.849 | 0.704 | 0.673 | 1.06 | 0.729 | 0.708 | 0.947 | 1.29
HPFHVYPQPGM [BAG3_Y114] | 0.79 | 1.05 | 0.883 | 0.545 | 0.465 | 0.873 | 0.804 | 0.499 | 0.749 | 1.01 | 0.585 | 0.938 | 1.02 | 0.684 | 0.998 | 0.852
HPWPRYTTRAP [FNDC1_Y1281_Q1280R] | 0.643 | 0.684 | 0.434 | 0.518 | 0.654 | 0.802 | 0.796 | 0.449 | 0.515 | 0.713 | 0.605 | 0.646 | 0.509 | 0.849 | 0.619 | 0.907
HQEPVCSVAFS [TBL1X_Y509_Y509C] | 0.591 | 1.12 | 0.646 | 1.17 | 0.794 | 1.07 | 0.658 | 0.874 | 1.12 | 0.654 | 0.791 | 1.09 | 0.804 | 0.69 | 1.1 | 2.01
HSDFQYSQRSQ [PKP2_Y168_YF] | 0.832 | 0.99 | 0.581 | 0.952 | 0.747 | 0.997 | 0.844 | 0.733 | 0.931 | 0.782 | 0.602 | 0.942 | 0.752 | 0.718 | 0.608 | 1.02
HSREDYFECFQ [ZIM2_Y411_Q408R] | 0.766 | 0.786 | 0.557 | 1.58 | 0.91 | 2.12 | 0.598 | 0.811 | 9.83 | 1.19 | 0.721 | 1.28 | 1.83 | 0.907 | 6.79 | 1.64
HVPEEYKPKQG [SAXO2_Y37] | 0.674 | 0.956 | 0.512 | 0.867 | 0.685 | 0.827 | 0.449 | 0.386 | 0.366 | 0.434 | 0.423 | 0.943 | 0.493 | 0.62 | 0.519 | 1.17
